Data on one substance can be found in article PMC9817100, “Preclinical profiles of SKB264, a novel anti-TROP2 antibody conjugated to topoisomerase inhibitor, demonstrated promising antitumor efficacy compared to IMMU-132” (Frontiers in Oncology, 2022).

The target of one data set is T1, Human TROP2 protein (Homo sapiens, UniProt P09758).
T1 sequence (P09758 27-323): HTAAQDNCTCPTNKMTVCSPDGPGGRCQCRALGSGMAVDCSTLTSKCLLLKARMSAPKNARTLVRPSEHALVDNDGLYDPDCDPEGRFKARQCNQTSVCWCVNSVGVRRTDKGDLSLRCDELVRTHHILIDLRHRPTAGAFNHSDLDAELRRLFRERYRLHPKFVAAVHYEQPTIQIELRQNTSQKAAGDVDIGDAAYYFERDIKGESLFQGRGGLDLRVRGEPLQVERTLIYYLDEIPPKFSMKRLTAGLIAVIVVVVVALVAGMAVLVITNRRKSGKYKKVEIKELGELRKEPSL
Put plainly: SPR dynamic affinity to human TROP2. In kind it is binding. The conditions noted are these: read-out: K d (KD) to recombinant human TROP2. Here is the method:
Surface plasmon resonance (SPR) was an alternative method to evaluate dynamic affinity, in which human TROP2 protein was captured with goat anti-human IgG Ab immobilized onto a CM5 sensor chip (Biacore Inc., Raleigh, NC). Serial titrations of SKB264 or IMMU-132 ranging from 0.0823 to 2.22 nM and running buffer were individually injected over the surface, which was captured human TROP2 for an association phase of 120 s, followed by a 600-s dissociation time. Kinetic parameters were calculated using the BIA evaluation software with the average values of two datasets collected on separate days. Association (K a) and dissociation (K d) rate constant values were calculated by fitting analysis assuming a Langmuir binding model ([16]) and a stoichiometry of (1:1) to determine K D (equilibrium dissociation constant) values.

In data set [1] the test system is HCC1806 xenograft. The settings on record: for TGI: HCC1806 xenograft (Figure 7D). Here is the method:
Female BALB/c nude mice (Charles River, Beijing, China) were inoculated with 2×10^6 HCC1806 cells in the right front flank. To evaluate in vivo efficacy of ADC, when the average tumor size reached about 120 mm^3, mice were randomized into 7 groups (n = 6 mice/group). The mice were treated with SKB264 or IMMU-132 at doses of 1, 3, and 10 mg/kg twice a week for six times via i.v. injection. To evaluate the PK-PD of ADC, when the average tumor size reached approximately 270 mm^3, mice were randomized into three groups (n = 5/time point). The mice received a single i.v. injection of control hIgG1, SKB264, or IMMU-132 (3 mg/kg), respectively. Blood samples (from five mice) were collected at 1 h, 4 h, 8 h, 24 h, 48 h, 96 h, 192 h, or 336 h post-dosing to detect the concentration of payload at each time point. The rate of TGI (n = 5 mice, measured at endpoint, i.e., 336 h) was determined to evaluate the antitumor efficacy of ADC. Body weight changes and mortality were also recorded to evaluate the tolerability of the testing items.

For data set [2], the system named is HCC1806 xenograft. In words: PK-PD study, single dose, HCC1806 xenograft. The format is in vivo, BALB/c nude mice. The settings on record: HCC1806 xenograft; single i.v. 3 mg/kg; after 13 days (336 h). Here is the method:
Phoenix WinNonlin 8.1 was used to calculate the PK parameters in the non-compartment model, including t 1/2, T max, C max, AUC0-t, and AUC0-∞. […] The half maximal effective concentration (EC50) and half maximal inhibitory concentration (IC50) were calculated using a nonlinear regression model with sigmoidal fitting. The in vitro antitumor activities of drugs were evaluated by a two-tailed paired t-test.

Data set [3] in a line: in vitro stability in monkey plasma (payload release). The format is in vitro ADME, cynomolgus monkeys. The settings on record: cynomolgus monkey plasma, 50 μg/ml, 37°C, 48-h incubation.
Data set [4] is described as follows: in vitro stability in human plasma (payload release). The format is in vitro ADME. The settings on record: 50 μg/ml, 37°C, 48-h incubation.
The test system of data set [5] is triple-negative breast cancer. The arrangement: method as in PMID 28291390, PMID 25944802. The settings on record: drug-resistant triple-negative breast cancer (TNBC) patients; cited from earlier work.
On the set-up of data set [6]: method as in PMID 25494821. The conditions noted are these: cited from earlier work.
Details of data set [7]: method as in PMID 25944802. The conditions noted are these: tumor-bearing mice model; previous studies; cited from earlier work.

Where two headings read alike, the source gives them in different places.

On to sacituzumab govitecan [IMMU-132], for which the Kd (usually the equilibrium constant for the complex coming apart) with Human TROP2 protein worked out at 0.293 nM. Also, the TGI in the data set with HCC1806 xenograft [1] (1 mg/kg i.v. twice a week for six times) was 48.12%; in the data set on HCC1806 xenograft [1] (3 mg/kg i.v. twice a week for six times), 70.64%; in the data set on HCC1806 xenograft [1] (10 mg/kg i.v. twice a week for six times), 153.27%; with HCC1806 xenograft [2], 21.05%. Further, in the data set on HCC1806 xenograft [1] (HCC1806 xenograft, all treatment groups 1, 3, 10 mg/kg), the “body weight of the experimental mice” value is “no significant change”. Also, the “release rate of the payload” value in data set [3] and in data set [4] was about 100% in each case. In addition, the “objective response rate (ORR)” value in data set [5] is recorded as 33%. For the same substance, the half-life in serum in data set [6] is recorded as ~ 1 day. Besides, in data set [7], the half-life (in general, how long it takes for the measured level to halve) is recorded as 14 h.
